Assay results taken from patent publication US20140120109A1 (Regeneron, published 2014).
Residue numbers refer to the chain shown, from its start. Names may count otherwise.

T1: human TL1A, soluble, CHO-expressed, residues 72-251 of SEQ ID NO:244 with N-terminal His6-tag (human, UniProt O95150 72-251)
T1 construct: also called hTL1A; hTL1A (CHO)
T1 sequence: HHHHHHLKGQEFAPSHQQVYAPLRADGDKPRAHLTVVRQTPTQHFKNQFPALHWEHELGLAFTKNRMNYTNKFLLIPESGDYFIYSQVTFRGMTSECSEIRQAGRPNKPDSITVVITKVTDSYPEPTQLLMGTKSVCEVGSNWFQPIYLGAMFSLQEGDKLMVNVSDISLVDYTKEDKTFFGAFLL

T2: cynomolgus monkey TL1A, soluble, CHO-expressed, residues 72-251 of SEQ ID NO:248 with N-terminal His6-tag (cynomolgus monkey (Macaca fascicularis), UniProt O95150 72-251 (human entry))
T2 construct: also called MfTL1A; MfTL1A (CHO)
T2 chain: T1 sequence with F45L, I84V

T3: full length human TL1A expressed on HEK293 cells (human, UniProt O95150 1-251)
T3 sequence: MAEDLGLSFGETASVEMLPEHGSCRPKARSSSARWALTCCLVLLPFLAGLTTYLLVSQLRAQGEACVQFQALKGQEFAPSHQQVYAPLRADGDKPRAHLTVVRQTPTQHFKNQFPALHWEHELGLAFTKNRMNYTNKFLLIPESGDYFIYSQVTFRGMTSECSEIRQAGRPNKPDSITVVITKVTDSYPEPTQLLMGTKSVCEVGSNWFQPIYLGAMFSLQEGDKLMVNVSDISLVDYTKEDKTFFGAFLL

T4: full-length Fhm, human TL1A(Q167R), expressed on HEK293 cells (human, UniProt O95150 1-251)
T4 sequence: T3 sequence with Q167R

T5: full-length cynomolgus monkey TL1A expressed on HEK293 cells (cynomolgus monkey (Macaca fascicularis), UniProt O95150 1-251 (human entry))
T5 chain: T3 sequence with R34C, F69L, A71D, F110L, I149V

B1: H4H1681N (antibody, human IgG4 S228P, V domains shown)
VH: EVQLLESGGGLVQPGKSLRLSCAVSGFTFSTYGMNWVRQAPGKGLEWVSSISGTGRTTYHADSVQGRFTVSRDNSKNILYLQMNSLRADDTAVYFCTKERGDYYYGVFDYWGQGTLVTVSS
VL: DIQMTQSPSTLSASVGDRVTITCRASQTISSWLAWYQQTPEKAPKLLIYAASNLQSGVPSRFSGSGSGTEFTLTISSLQPDDFATYYCQQYHRSWTFGQGTKVEIT
B2: H4H1752P (antibody, human IgG4 S228P, V domains shown)
VH: EVQLVESGGGLVQPGGSLRLSCSASGFTFSKYVMTWVRQAPGKGLEWVSAIGPTGRTTEYADSVQGRFTISRDNSMNTVFLHLNSLTAEDTAEYYCAKMFDWNYDVYFDSWGQGTLVTVSS
VL: DIQMTQSPSILSASVGDRVTITCRTSQSISNWLAWYQQKPGKAPNLLIYKASSLESGVPSRFSGSGSGTEFTLTISSLQPDDFATYYCQQYYRYWTFGQGTKVEIK
B3: H4H1704N (antibody, human IgG4 S228P, V domains shown)
VH: EVQLVESGGGLVQPGGSLRLSCAVSGFTFSSYWMSWVRQAPGKGLEWVANIKEDGSEKNYVDSVKGRFTLSSDNAKNSLYLQMNSLRAEDTAVYYCAREDYDSYYKYGMDVWGQGTAVIVSS
VL: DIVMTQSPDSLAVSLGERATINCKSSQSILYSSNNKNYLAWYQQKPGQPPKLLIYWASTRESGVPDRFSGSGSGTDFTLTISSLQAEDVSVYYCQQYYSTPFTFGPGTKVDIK
notes: human IgG4(S108P) form of H2M1704N
B4: H4H1804N (antibody, human IgG4 S228P, V domains shown)
VH: QVQLHQWGAGLLKPSETLSLTCAVSGVSFSDYHWAWIRQSPGKGLEWIGDINHRGRTNYNPSLKSRVTISLDTSGNPFSLKLTSVTAADTAVYYCARDFPNWVFDSWGQGILVTVSS
VL: EIVLSQSPGTLSLSPGERATLSCRASQSVSSSFLAWYQQYPGQAPRLLIYGASRRATGIPDRFRGSGSGTDFTLTISRLEPEDFAVYYCQQYGSSPLTFGGGTKVENK
notes: human IgG4(S108P) form of H2M1804N
B5: H4H1805N (antibody, human IgG4 S228P, V domains shown)
VH: QVQLQQWGAGLLKPSETLSLTCAVYGGSFTGFYWSWIRQPPGKGLEWIGEINHRGNTNYNPSLKSRVTMSVDTSKNQFSLNMISVTAADTAMYFCASPFYDFWSGSDYWGQGTLVTVSS
VL: DIMLTQTPLTSPVTLGQPASISCKSSQSLVHSDGNTYLSWLQQRPGQPPRLLFYKISNRFSGVPDRFSGSGAGTDFTLKISRVEAEDVGVYYCMQATQFPLTFGGGTKVEIK
notes: human IgG4(S108P) form of H2M1805N
B6: H4H1817N (antibody, human IgG4 S228P, V domains shown)
VH: QVQLQQWGAGLLKPSETLSLTCAVSGGSFSDYFWTWIRQPPGKGLEWIGEISHSGRTNYNPSLKSRVTISVDTSMSQFSLKMTSVTAADSAVYYCARDYPNWVFDYWGQGTLVTVSS
VL: EIELTQSPGTLSLSPGEGATLSCRASQSVFNSYLAWYQQKPGQAPRLLIYGASRRATGIPDRFSGSGSGTDFTLTISRLEPGDFAVYFCQQYGNSPLTFGGGTKVEIK
notes: human IgG4(S108P) form of H2M1817N
B7: H4H1818N (antibody, human IgG4 S228P, V domains shown)
VH: RLQLVESGGGLVKPGGSLKLSCAASGFTISDYYMSWIRQAPGKGLEWVSYIGGSGSTIYYADSVKGRFTISRDNAKNSLYLQMNSLRAEDTAVYYCAREDADSYYYYGMDVWGQGTTVTVSS
VL: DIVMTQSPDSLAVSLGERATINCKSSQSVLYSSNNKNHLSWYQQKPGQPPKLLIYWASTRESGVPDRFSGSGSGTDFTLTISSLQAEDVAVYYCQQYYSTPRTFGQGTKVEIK
notes: human IgG4(S108P) form of H2M1818N
B8: H4H1750P (antibody, human IgG4 S228P, V domains shown)
VH: QVQLVESGGGVVQPGRSLRLSCVASGFTFSNYGMHWVRQAPGKGLEWVAVISYDGNNDLYSDSVKGRFTISRDNAKNALSLQMTSLRAEDTAVYYCARDSTMTPYYYHGIDVWGQGTTVTVSA
VL: DIQMTQSPSSLSASVGDRVTITCRASQDIRNDLGWYQQKPGKAPKRLIYAASSLQSGVPSRFSGSGSGTDFTLTISSLQPEDFATYYCLQHNSYPPTFGQGTKVEIK

These binders were tested against T1, human TL1A, soluble, CHO-expressed, … (assay: SPR 25C, mAb captured).
Outline: (§1)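 Biacore T100 SPR with captured mAb and soluble TL1A/Fhm analyte; ka and kd fitted to a 1:1 model assuming monomeric TL1A. KD = kd/ka; t1/2 (min) = ln2/(60·kd).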

Going from B1 to B2, the Kd falls from 0.263 nM to 0.156 nM (1.7-fold).

Going from B3 to B4, the Kd rises from 0.0392 nM to 0.291 nM (7.4-fold).

B5 and B6 are within 1.5-fold of each other in Kd: 0.365 nM for the first, 0.321 nM for the second.

With B7 the Kd was 0.124 nM.

Going from B1 to B2, the t1/2 rises from 0.6 h to 3.28 h (5.5-fold).

Going from B3 to B4, the t1/2 falls from 7.55 h to 0.85 h (8.9-fold).

B5 and B6 are within 1.5-fold of each other in t1/2: 1.22 h for the first, 1.72 h for the second.

Binder B7 has a t1/2 of 2 h.

Target: T2, cynomolgus monkey TL1A, soluble, …
Assay: SPR 25C, mAb captured
Outline: as §1

First: B1
Second: B2
The Kd of the first is 1.9-fold higher: 0.404 nM for the first, 0.213 nM for the second.

Going from B3 to B4, the Kd rises from 0.0599 nM to 0.264 nM (4.4-fold). The first binds more tightly here.

B5 and B6 are within 1.5-fold of each other in Kd: 0.342 nM for the first, 0.356 nM for the second.

Binder B7 has a Kd of 0.119 nM.

Going from B1 to B2, the t1/2 rises from 0.417 h to 2.32 h (5.6-fold).

First: B3
Second: B4
The t1/2 of the first is 5.6-fold higher: 4.6 h for the first, 0.817 h for the second.

B5 and B6 are within 1.5-fold of each other in t1/2: 1.23 h for the first, 1.53 h for the second.

Binder B7 has a t1/2 of 2.03 h.

Each binder was assayed against T3, full length human TL1A expressed on … (assay: cell-based or functional assay).

First: B1
Second: B2
The “IC50, reporter + 10,000 TL1A cells” value of the first is 3-fold lower: 0.66 nM for the first, 1.99 nM for the second.

First: B3
Second: B4
The “IC50, reporter + 10,000 TL1A cells” value of the first is 2-fold higher: 1.11 nM for the first, 0.56 nM for the second.

B5 and B6 are within 1.5-fold of each other in “IC50, reporter + 10,000 TL1A cells” value: 0.82 nM for the first, 1.11 nM for the second.

Compared with B7, B8 is 8.3-fold higher in “IC50, reporter + 10,000 TL1A cells” value: 1.54 nM for the first, 12.8 nM for the second.

Each binder was assayed against T4, full-length Fhm, human TL1A(Q167R), … (assay: cell-based or functional assay).

Compared with B2, B3 is 87-fold lower in “IC50, reporter + 10,000 TL1A cells” value: 138 nM for the first, 1.58 nM for the second.

Compared with B4, B5 is 44-fold higher in “IC50, reporter + 10,000 TL1A cells” value: 1.23 nM for the first, 54.1 nM for the second.

Going from B6 to B7, the “IC50, reporter + 10,000 TL1A cells” value rises from 0.62 nM to 1.42 nM (2.3-fold).

With B8 the “IC50, reporter + 10,000 TL1A cells” value was 29.5 nM.

Target: T5, full-length cynomolgus monkey TL1A …
Assay: cell-based or functional assay

Compared with B1, B2 is 3.8-fold higher in “IC50, reporter + 10,000 TL1A cells” value: 3.07 nM for the first, 11.7 nM for the second.

Compared with B3, B4 is 1.7-fold lower in “IC50, reporter + 10,000 TL1A cells” value: 3.76 nM for the first, 2.23 nM for the second.

Compared with B5, B6 is 2.6-fold higher in “IC50, reporter + 10,000 TL1A cells” value: 1.93 nM for the first, 5.04 nM for the second.

Compared with B7, B8 is 25-fold higher in “IC50, reporter + 10,000 TL1A cells” value: 4.29 nM for the first, 107 nM for the second.

Each binder was assayed against T1, human TL1A, soluble, CHO-expressed, … (assay: ELISA, blocks hTL1A (150 pM) binding hDR3-Fc).
Protocol: (§2) The ability of antibodies to block human TL1A binding to its cognate receptors, the DR3 and DcR3 receptors, was measured using a competition sandwich ELISA. In addition, blocking of a human TL1A variant FHM (human TL1A Q167R) and the cynomolgus monkey (Macaca fascicularis) TL1A (MfTL1A) protein binding to the human DR3 or DcR3 receptors was measured in the same manner. Constant amounts of biotinylated human TL1A or FHM (both expressed with a 6-His tag in CHO cells) or biotinylated MfTL1A (expressed in CHO cells) were separately titrated with varying amounts of antibodies. The antibody-protein complexes were incubated in solution (1 hr, 25° C.) and then transferred to microtiter plates coated with human DR3 (hDR3) or human DcR3 (hDcR3) expressed as human IgG1 Fc fusion proteins. After one hour at 25° C. the wells were washed, and bound human or monkey TL1A was detected with streptavidin conjugated with horseradish peroxidase (HRP). Wells were developed with a TMB solution to produce a colorimetric reaction and quenched with aqueous sulfuric acid before reading absorbance at 450 nm on a Perkin-Elmer Victor X5 plate reader. A sigmoidal dose-response curve was fit to the data using the Prism™ data analysis package. […] Both fully human anti-hTL1A mAbs and comparator antibodies, i.e., control mAb1 (an anti-hTL1A antibody with heavy and light chain variable domains having the amino acid sequences corresponding to SEQ ID NOS:21 and 27, respectively, of US 2009/0280116) and control mAb3 (an anti-hTL1A antibody with heavy and light chain variable domains having the amino acid sequences corresponding to SEQ ID NOS:57 and 48, respectively, of US 2009/0280116), were included in the study. NB: No binding under the conditions tested; NT: Not tested. Concentrations of biotinylated soluble ligands: (1) 150 pM; (2) 500 pM; (3) 10 pM; and (4) 50 pM.

First: B1
Second: B2
The IC50 of the first is 1.7-fold lower: 0.06 nM for the first, 0.104 nM for the second. The first is the more potent here.

B3 and B4 are within 1.5-fold of each other in IC50: 0.03 nM for the first, 0.04 nM for the second.

Compared with B5, B6 is 8.1-fold higher in IC50: 0.014 nM for the first, 0.114 nM for the second. The first is the more potent here.

First: B7
Second: B8
The IC50 of the first is 2.9-fold lower: 0.119 nM for the first, 0.341 nM for the second.

Target: T2, cynomolgus monkey TL1A, soluble, …
Assay: ELISA, blocks MfTL1A (50 pM) binding hDcR3-Fc
Protocol: as §2

Compared with B1, B2 is 1.7-fold lower in IC50: 0.093 nM for the first, 0.056 nM for the second.

Going from B3 to B4, the IC50 falls from 0.11 nM to 0.034 nM (3.2-fold).

B5 and B6 are within 1.5-fold of each other in IC50: 0.313 nM for the first, 0.322 nM for the second.

B7 showed an IC50 of 1.1 nM.

Target: T2, cynomolgus monkey TL1A, soluble, …
Assay: ELISA, blocks MfTL1A (500 pM) binding hDR3-Fc
Protocol: as §2

B1 and B2 are within 1.5-fold of each other in IC50: 0.141 nM for the first, 0.11 nM for the second.

First: B3
Second: B4
The IC50 of the first is 1.7-fold lower: 0.042 nM for the first, 0.071 nM for the second.

First: B5
Second: B6
The IC50 of the first is 3.9-fold lower: 0.026 nM for the first, 0.101 nM for the second.

With B7 the IC50 was 0.123 nM.
